Data on six proteins can be found in the PETadex activity labels (doi:10.1074/jbc.m109.041285).

Usually Km stands for the substrate concentration at which the rate is half of its maximum. What is called kcat is the maximal rate divided by the concentration of active sites. The kcat/Km is the turnover number divided by the Michaelis constant.

Substrate in this data set: Acd (paper fig)
As to conditions: 30 °C.

B1: unnamed (protein)
chain: MSKVDLWQDATAQAELVRSGEISRTELLEATIAHVQAVNPEINAVIIPLFEKARRESELASGPFAGVPYLLKDLTVVSQGDINTSSIKGMKESGYRADHDAYFVQRMRAAGFVLLGKTNTPEMGNQVTTEPEAWGATRNPWNLGRSVGGSSGGSGAAVAAALSPVAHGNDAAGSVRIPASVCGVVGLKPTRGRISPGPLVTDSDNVAGAAHEGLFARSVRDIAALLDVVSGHRPGDTFCAPTASRPYAQGISENPGSLRVGVLTHNPVGDFALDPECAAAARGAAAALAALGHDVNDAYPEALGDRSFLKDYSTIGDVAIAREIERNGELIGRPLTEDDVEWTSWEMVKRADQVTGRAFAACVDELRYYAGKVERWWEAGWDLLILPTVTRQTPEIGELMLAKGTDLEGRQSAFISGSLQMLAFTVPFNVSGQPAISLPIGMSSDGMPIGVQIVAAYGREDLLLQVAAQLEGALPWVARRPQLLNPSRKIPAA
For the protein B1, the Km came out at 3.66 mM, the kcat stood at 9.15 s⁻¹ and the kcat/Km was found to be 2500 M⁻¹ s⁻¹.

B2: unnamed (protein)
chain: MSKVDLWQDATAQAELVRSGEISRTELLEATIAHVQAVNPEINAVIIPLFEKARRESELASGPFAGVPYLLKDLTVVSQGDINTSSIKGMKESGYRADHDAYFVQRMRAAGFVLLGKTNTPEMGNQVTTEPEAWGATRNPWNLGRSVGGSSGGSGAAVAAALSPVAHGNDAAGSVRIPASVCGVVGLKPTRGRISPGPLVTDSDNVAGAAHEGLFARSVRDIAALLDVVSGHRPGDTFCAPTASRPYAQGISENPGSLRVGVLTHNPVGDFALDPECAAAARGAAAALAALGHDVNDAYPEALGDRSFLKDYSTISDVAIAREIERNGELIGRPLTEDDVEWTSWEMVKRADQVTGRAFAACVDELRYYAGKVERWWEAGWDLLILPTVTRQTPEIGELMLAKGTDLEGRQSAFISGSLQMLAFTVPFNVSGQPAISLPIGMSSDGMPIGVQIVAAYGREDLLLQVAAQLEGALPWVARRPQLLNPSRKIPAA
B2: the Km came out at 1.8 mM, the kcat was 4.83 s⁻¹ and the kcat/Km was found to be 2680 M⁻¹ s⁻¹.

B3: unnamed (protein)
chain: MSKVDLWQDATAQAELVRSGEISRTELLEATIAHVQAVNPEINAVIIPLFEKARRESELASGPFAGVPYLLKDLTVVSQGDINTSSIKGMKESGYRADHDAYFVQRMRAAGFVLLGKTNTPEMGNQVTTEPEAWGATRNPWNLGRSVGGSSGGSGAAVAAALSPVAHGNDAAGSVRIPASVCGVVGLKPTRGRISPGPLVTDSDNVAGAAHEGLFARSVRDIAALLDVVSGHRPGDTFCAPTASRPYAQGISENPGSLRVGVLTHNPVGDFALDPECAAAARGAAAALAALGHDVNDAYPEALGDRSFLKDYSTICDVAIAREIERNGELIGRPLTEDDVEWTSWEMVKRADQVTGRAFAACVDELRYYAGKVERWWEAGWDLLILPTVTRQTPEIGELMLAKGTDLEGRQSAFISGSLQMLAFTVPFNVSGQPAISLPIGMSSDGMPIGVQIVAAYGREDLLLQVAAQLEGALPWVARRPQLLNPSRKIPAA
Regarding B3, the Km was found to be 3.51 mM, the kcat worked out at 4.97 s⁻¹ and the catalytic efficiency (kcat/Km) came out at 1420 M⁻¹ s⁻¹.

B4: unnamed (protein)
chain: MSKVDLWQDATAQAELVRSGEISRTELLEATIAHVQAVNPEINAVIIPLFEKARRESELASGPFAGVPYLLKDLTVVSQGDINTSSIKGMKESGYRADHDAYFVQRMRAAGFVLLGKTNTPEMGNQVTTEPEAWGATRNPWNLGRSVGGSSGGSGAAVAAALSPVAHGNDAAGSVRIPASVCGVVGLKPTRGRISPGPLVTDSDNVAGAAHEGLFARSVRDIAALLDVVSGHRPGDTFCAPTASRPYAQGISENPGSLRVGVLTHNPVGDFALDPECAAAARGAAAALAALGHDVNDAYPEALGDRSFLKDYSTIADVAIAREIERNGELIGRPLTEDDVEWTSWEMVKRADQVTGRAFAACVDELRYYAGKVERWWEAGWDLLILPTVTRQTPEIGELMLAKGTDLEGRQSAFISGSLQMLAFTVPFNVSGQPAISLPIGMSSDGMPIGVQIVAAYGREDLLLQVAAQLEGALPWVARRPQLLNPSRKIPAA
On to B4, for which the Km was 0.85 mM, the kcat is 0.71 s⁻¹ and the kcat/Km came to 835 M⁻¹ s⁻¹.

B5: unnamed (protein)
chain: MSKVDLWQDATAQAELVRSGEISRTELLEATIAHVQAVNPEINAVIIPLFEKARRESELASGPFAGVPYLLKDLTVVSQGDINTSSIKGMKESGYRADHDAYFVQRMRAAGFVLLGKTNTPEMGNQVTTEPEAWGATRNPWNLGRSVGGSSGGSGAAVAAALSPVAHGNDAAGSVRIPASVCGVVGLKPTRGRISPGPLVTDSDNVAGAAHEGLFARSVRDIAALLDVVSGHRPGDTFCAPTASRPYAQGISENPGSLRVGVLTHNPVGDFALDPECAAAARGAAAALAALGHDVNDAYPEALGDRSFLKDYSTIDDVAIAREIERNGELIGRPLTEDDVEWTSWEMVKRADQVTGRAFAACVDELRYYAGKVERWWEAGWDLLILPTVTRQTPEIGELMLAKGTDLEGRQSAFISGSLQMLAFTVPFNVSGQPAISLPIGMSSDGMPIGVQIVAAYGREDLLLQVAAQLEGALPWVARRPQLLNPSRKIPAA
B5: the Michaelis constant (Km) came out at 19 mM, the turnover number (kcat) was determined as 0.14 s⁻¹ and the kcat/Km is 7.37 M⁻¹ s⁻¹.

B6: unnamed (protein)
chain: MSKVDLWQDATAQAELVRSGEISRTELLEATIAHVQAVNPEINAVIIPLFEKARRESELASGPFAGVPYLLKDLTVVSQGDINTSSIKGMKESGYRADHDAYFVQRMRAAGFVLLGKTNTPEMGAQVTTEPEAWGATRNPWNLGRSVGGSSGGSGAAVAAALSPVAHGNDAAGSVRIPASVCGVVGLKPTRGRISPGPLVTDSDNVAGAAHEGLFARSVRDIAALLDVVSGHRPGDTFCAPTASRPYAQGISENPGSLRVGVLTHNPVGDFALDPECAAAARGAAAALAALGHDVNDAYPEALGDRSFLKDYSTICDVAIAREIERNGELIGRPLTEDDVEWTSWEMVKRADQVTGRAFAACVDELRYYAGKVERWWEAGWDLLILPTVTRQTPEIGELMLAKGTDLEGRQSAFISGSLQMLAFTVPFNVSGQPAISLPIGMSSDGMPIGVQIVAAYGREDLLLQVAAQLEGALPWVARRPQLLNPSRKIPAA
For B6, the Km stood at 13.2 mM, the turnover number (kcat) stood at 1.12 s⁻¹ and the kcat/Km was 84.8 M⁻¹ s⁻¹.
